Measurements from US10806913B2, “Methods for better delivery of active agents to tumors” (Sorrento Therapeutics, Inc., priority 2015, dated 2020).
Entries after “also recorded” stand apart in the source; their conditions may differ.

Columns and labels:
[1] = In vivo near infrared imaging of lymphatic delivery after administration to the skin; design: species or system rats; conditions: fluorescently tagged, needle array placed dorsally, FIG. 11 and 12
Protocol: The ability to deliver the protein therapeutic Etanercept directly to the lymphatic system via administration to the skin was tested. Etanercept was fluorescently tagged for in vivo visualization using near infrared light as previous described, see Sevick-Muraca et al., J. Clin Invest., 124(3), 905-914 (2014), which is incorporated by reference herein for its teachings thereof. Etanercept was administered to the skin of rats by μlacing a delivery device comprising an array of needles dorsally on the rats.

[2] = Biodistribution across tissue types after delivery to the skin; assay type: in vivo, rats; conditions: skin delivery compared to i.v., s.c. or i.d., FIG. 13
From the text: The biodistribution of etanercept across multiple tissues types following delivery was investigated.

[3] = Blood serum absorption rate after delivery to the skin; assay type: in vivo; conditions: skin administration compared to i.v., s.c. or i.d.; FIG. 14

Substance: Etanercept
- lymphatic uptake and distribution to lymph nodes [1]: uptake by the lymphatic vasculature and subsequent distribution to primary and secondary lymph node tissues
- lymphatic uptake and distribution to lymph nodes ([1]; listed as Etanercept): delivery directly to the lymphatic vasculature and lymph node tissues; also recorded: delivery to the axillary and mandibular lymph nodes
- levels within the axillary and inguinal lymph nodes [2]: much higher levels
- levels within the axillary and inguinal lymph nodes ([2]; listed as Etanercept): increased delivery to the lymph nodes
- blood serum absorption rate [3]: approximately the same
